For one substance, FRET efficiency results are on record in article PMC5225424.

The assay concerns the target GmMYB176-YFP (soybean (Glycine max)). Kind of assay: FRET or BRET; FRET by acceptor bleaching, CFP as donor and YFP as acceptor, co-expressed in N. benthamiana leaf epidermal cells; average of multiple samples (n > 15). On the technique in general: In BRET a luciferase serves as donor, and the signal depends on an acceptor being close.

As to “GmCYP1-CFP (from UniProt Q8W171 1-172) (natural protein)”, the FRET efficiency was determined as 23.8%.
